As a reminder, the Kd is a measure of binding affinity in units of concentration. By koff is commonly meant the rate constant with which the complex falls apart. As usually defined, the kon is the second-order rate constant of association.

Values joined by “and” are separate entries in the source; they are usually repeats but may differ in a detail not shown here. Equal values may be shown once. Some results are limits rather than exact numbers.

Consider 6 molecules from patent US20220010008A1.

Test [1] concerns the target recombinant human IL-5 protein (human) (UniProt P05113). Put plainly: SPR, human IL-5 immobilized on chip, 1:1 fit. In general terms: SPR reads the build-up and loss of mass on a sensor chip optically.
Test [2] shares this target. Put plainly: SPR, human IL-5 immobilized on CM5 chip, chimeric antibody as analyte, 1:1 global fit.
The target is the same in test [3]. The experiment in a line: FACS, biotin-IL-5 bound to CHOK1 hIL-5Ra/CSF2RB cells with Ab 33.3333 nM. Background: In flow cytometry, cells or beads pass a laser one at a time.
For test [4] the target is unchanged. Put plainly: FACS, biotin-IL-5 bound to CHOK1 hIL-5Ra/CSF2RB cells with Ab 6.6667 nM.
The target is the same in test [5]. Put plainly: FACS, biotin-IL-5 bound to CHOK1 hIL-5Ra/CSF2RB cells with Ab 0.0021 nM.
For test [6] the target is unchanged. The experiment in a line: FACS, biotin-IL-5 bound to CHOK1 hIL-5Ra/CSF2RB cells with Ab 0.0533 nM.
Test [7] shares this target. Put plainly: cell-based or functional assay.
Test [8] shares this target. Put plainly: FACS, biotin-IL-5 bound to CHOK1 hIL-5Ra/CSF2RB cells with Ab 0.0107 nM.
Test [9] has the same target. Put plainly: FACS, biotin-IL-5 bound to CHOK1 hIL-5Ra/CSF2RB cells with Ab 0.2667 nM.
Test [10] shares this target. Put plainly: FACS, biotin-IL-5 bound to CHOK1 hIL-5Ra/CSF2RB cells with Ab 1.3333 nM.
The target is the same in test [11]. Put plainly: FACS, biotin-IL-5 bound to CHOK1 hIL-5Ra/CSF2RB cells with Ab 0.0004 nM.

B1: 69F2F3 (murine hybridoma lead antibody) (antibody, V domains shown)
VH: QVQLKQSGPGLVQPSQSLSITCTVSGFSLSNYGVHWVRQSPGKGLEWLGVIWSGGSTDYNAAFKSRLSITKDNSKSQVVFRMNSLQTDDTATYYCARNKDFLDYWGQGTKFTVSS
VL: DIVMTQSPSSLTVTAGEKVTMTCKSSQGLLNSGNQKNYLTWYQQKPGQPPKLLIYWASTRESGVPDRFTGSGSGTDFTLTISSVQAEDLAVYYCQNDYHFPLTFGAGTKLELK
For B1, in [1], the Kd came out at 0.0221 nM, the koff stood at 8.14e-06 s⁻¹ and the on-rate (kon) is 368000 M⁻¹ s⁻¹.

B2: 69F2F3 mouse-human chimeric antibody (antibody, human IgG4, V domains shown)
VH: B1 VH
VL: B1 VL
For B2, in [2], the Kd was below 0.12 nM, the koff was below 1e-05 s⁻¹ and the kon amounted to 81900 M⁻¹ s⁻¹.

B3: 147D7H2 (murine hybridoma lead antibody) (antibody, V domains shown)
VH: EVQLQQSGAELVKPGASVKLSCTASGFNIKDYFIHWVKQRTEQGLEWIGRIDTEDGETKYAPKFQGKATITIDTSSNTAYLYFSSLTSEDTAMYYCARYGNYVAMDYWGQGTSVTVSS
VL: QIVLTQSPALMSASPGEKVTMTCSASSSVSYMFWYQQKPSSSPKPWIYLTSKLASGVPARFSGSGSGTSYSLTISSVEAEDAATYYCQQWNSNPYTFGGGTKLEIK
As to B3, the Fluorescence intensity in test [3] was found to be 31. Further, the Fluorescence intensity in test [4] turned out to be 36. Besides, the Fluorescence intensity in test [5] is 93. Moreover, the Fluorescence intensity in test [6] was determined as 90. In addition, in [7], the RLU, CTLL-2 cell proliferation stimulated by IL-5, Ab conc. 0.000170667 nM was 56800 RLU and 61000 RLU; the RLU, CTLL-2 cell proliferation stimulated by IL-5, Ab conc. 0.000853333 nM is 56400 RLU and 57300 RLU; the RLU, CTLL-2 cell proliferation stimulated by IL-5, Ab conc. 0.004266667 nM was 50600 RLU and 55900 RLU; the RLU, CTLL-2 cell proliferation stimulated by IL-5, Ab conc. 0.02133333 nM is 49000 RLU and 45200 RLU. For the same molecule, in test [7], the RLU, CTLL-2 cell proliferation stimulated by IL-5, Ab conc. 0.1066667 nM was 26500 RLU and 26300 RLU; the RLU, CTLL-2 cell proliferation stimulated by IL-5, Ab conc. 0.5333334 nM was 16700 RLU and 15200 RLU; the RLU, CTLL-2 cell proliferation stimulated by IL-5, Ab conc. 2.666667 nM was 13700 RLU and 14400 RLU; the RLU, CTLL-2 cell proliferation stimulated by IL-5, Ab conc. 13.33333 nM was 12900 RLU and 13500 RLU. Moreover, in [7], the RLU, CTLL-2 cell proliferation stimulated by IL-5, Ab conc. 66.66666 nM is 10700 RLU and 11300 RLU; the RLU, CTLL-2 cell proliferation stimulated by IL-5, Ab conc. 3.41333E-05 nM is 58900 RLU and 59800 RLU; the RLU, TF-1 cell proliferation stimulated by IL-5, Ab conc. 0.00001 nM was 111000 RLU and 112000 RLU; the RLU, TF-1 cell proliferation stimulated by IL-5, Ab conc. 0.00003 nM was 111000 RLU and 113000 RLU. Besides, in test [7], the RLU, TF-1 cell proliferation stimulated by IL-5, Ab conc. 0.00017 nM is 116000 RLU and 112000 RLU; the RLU, TF-1 cell proliferation stimulated by IL-5, Ab conc. 0.00085 nM was 105000 RLU; the RLU, TF-1 cell proliferation stimulated by IL-5, Ab conc. 0.00427 nM was 90300 RLU and 86300 RLU; the RLU, TF-1 cell proliferation stimulated by IL-5, Ab conc. 0.02133 nM is 72200 RLU and 55900 RLU. For the same molecule, in test [7], the RLU, TF-1 cell proliferation stimulated by IL-5, Ab conc. 0.10667 nM is 42300 RLU and 43600 RLU; the RLU, TF-1 cell proliferation stimulated by IL-5, Ab conc. 0.53333 nM is 36200 RLU and 39400 RLU; the RLU, TF-1 cell proliferation stimulated by IL-5, Ab conc. 2.66667 nM is 39900 RLU and 38100 RLU; the RLU, TF-1 cell proliferation stimulated by IL-5, Ab conc. 13.33333 nM was 35500 RLU and 37500 RLU. For the same molecule, the Fluorescence intensity in test [8] was determined as 88. In addition, in test [9], the Fluorescence intensity is 74. Further, the Fluorescence intensity in test [10] stood at 55. In addition, in test [1], the Kd is below 0.0504 nM, the off-rate (koff) was below 1e-05 s⁻¹ and the kon amounted to 198000 M⁻¹ s⁻¹. Also, in test [11], the Fluorescence intensity came to 96.

B4: 154F10G8 (murine hybridoma lead antibody) (antibody, V domains shown)
VH: QVQLQQPGAELVKPGASVKLSCKASGYTFTSYWITWVKQRPGQGLEWIGDIYPGSGSTFYNEKFKSEATLTVDTSSSTAYMQLSSLTSEDSAVFYCSTETTLGYWGQGTTLTVSS
VL: DVLMTQTPLSLPVSLGDQASISCRSSQSIVHNNGNTYLEWYLQKPGQSPKLLIYKVSNRFSGVPDRFSGSGSGTDFTLKISRVEAEDLGVYYCFQGSHVPFTFGSGTKLEIK
For B4, the Fluorescence intensity in test [3] came to 34. Besides, the Fluorescence intensity in test [4] was 43. Besides, the Fluorescence intensity in test [5] worked out at 91. In addition, the Fluorescence intensity in test [6] turned out to be 92. Moreover, in [7], the RLU, CTLL-2 cell proliferation stimulated by IL-5, Ab conc. 0.000170667 nM is 57900 RLU and 56300 RLU; the RLU, CTLL-2 cell proliferation stimulated by IL-5, Ab conc. 0.000853333 nM was 64800 RLU and 54500 RLU; the RLU, CTLL-2 cell proliferation stimulated by IL-5, Ab conc. 0.004266667 nM was 64200 RLU and 64300 RLU; the RLU, CTLL-2 cell proliferation stimulated by IL-5, Ab conc. 0.02133333 nM was 56900 RLU and 52300 RLU. In [7], the RLU, CTLL-2 cell proliferation stimulated by IL-5, Ab conc. 0.1066667 nM is 36100 RLU and 30000 RLU; the RLU, CTLL-2 cell proliferation stimulated by IL-5, Ab conc. 0.5333334 nM is 21500 RLU and 20200 RLU; the RLU, CTLL-2 cell proliferation stimulated by IL-5, Ab conc. 2.666667 nM is 19700 RLU and 17100 RLU; the RLU, CTLL-2 cell proliferation stimulated by IL-5, Ab conc. 13.33333 nM was 16200 RLU and 14700 RLU. Also, in [7], the RLU, CTLL-2 cell proliferation stimulated by IL-5, Ab conc. 66.66666 nM is 11500 RLU and 10900 RLU; the RLU, CTLL-2 cell proliferation stimulated by IL-5, Ab conc. 3.41333E-05 nM is 58700 RLU and 61300 RLU; the RLU, TF-1 cell proliferation stimulated by IL-5, Ab conc. 0.00001 nM was 108000 RLU and 113000 RLU; the RLU, TF-1 cell proliferation stimulated by IL-5, Ab conc. 0.00003 nM is 110000 RLU and 115000 RLU. In [7], the RLU, TF-1 cell proliferation stimulated by IL-5, Ab conc. 0.00017 nM is 114000 RLU and 108000 RLU; the RLU, TF-1 cell proliferation stimulated by IL-5, Ab conc. 0.00085 nM is 99300 RLU and 103000 RLU; the RLU, TF-1 cell proliferation stimulated by IL-5, Ab conc. 0.00427 nM was 76100 RLU and 79700 RLU; the RLU, TF-1 cell proliferation stimulated by IL-5, Ab conc. 0.02133 nM was 54800 RLU and 57500 RLU. Also, in test [7], the RLU, TF-1 cell proliferation stimulated by IL-5, Ab conc. 0.10667 nM was 42100 RLU and 51500 RLU; the RLU, TF-1 cell proliferation stimulated by IL-5, Ab conc. 0.53333 nM is 40600 RLU and 42300 RLU; the RLU, TF-1 cell proliferation stimulated by IL-5, Ab conc. 2.66667 nM was 34500 RLU and 42000 RLU; the RLU, TF-1 cell proliferation stimulated by IL-5, Ab conc. 13.33333 nM is 33800 RLU and 35300 RLU. For the same molecule, the Fluorescence intensity in [8] was 91. The Fluorescence intensity in test [9] was 86. In addition, in [10], the Fluorescence intensity was determined as 66. In [1], the Kd amounted to 0.158 nM, the koff was 6.65e-05 s⁻¹ and the kon was 422000 M⁻¹ s⁻¹. In addition, the Fluorescence intensity in test [11] was determined as 90.

B5: 102A2E11B6 (murine hybridoma lead antibody) (antibody, V domains shown)
VH: QVQLRQSGPGLVQPSQSLSITCTVSGFSLTSYGVHWVRQSPGKGLEWLGVIWSGGSTDYNAVFMSRLSISKDSSKSQVFFKMNSLQTDDTAIYYCARNRYVLDYWGQGTSVTVSS
VL: DIVMTQSPSSLSVSAGERVTMRCKSSQSLLTSGDQKNHLAWYQQKPGQPPKLLIYGASTRESGVPDRFTGSGSGTDFTLTITSVQAEDLAVYYCQNDHSFPLTFGAGTKLELK
As to B5, in [1], the Kd came out at 0.063 nM, the koff amounted to 2.32e-05 s⁻¹ and the kon is 369000 M⁻¹ s⁻¹.

B6: 102A2E11B6 mouse-human chimeric antibody (antibody, human IgG4, V domains shown)
VH: B5 VH
VL: B5 VL
Consider B6, for which, in [2], the Kd stood at 0.221 nM, the koff came out at 2.73e-05 s⁻¹ and the kon amounted to 124000 M⁻¹ s⁻¹.
